# Biological target: HLA-A*02 (Homo sapiens, UniProt P04439, D140Y/D185E/D98H/E176V/E277Q/G131W/G231S/I119V/I121R/I166T/I218V/N151K/N90K/P208A/P217A/Q86G/Q94H/R138H/R169H)
# Assay: MHC binding assay, UV-ligand exchange with beta2m ELISA, HLA-A*02
# Settings: peptide exchange yield
# Text: Candidate peptides for T cell based therapies according to the present invention were further tested for their MHC binding capacity (affinity). The individual peptide-MHC complexes were produced by UV-ligand exchange, where a UV-sensitive peptide is cleaved upon UV-irradiation, and exchanged with the peptide of interest as analyzed. Only peptide candidates that can effectively bind and stabilize the peptide-receptive MHC molecules prevent dissociation of the MHC complexes. To determine the yield of the exchange reaction, an ELISA was performed based on the detection of the light chain (β2m) of stabilized MHC complexes. The assay was performed as generally described in Rodenko et al. (Rodenko et al., 2006).
# 96 well MAXISorp plates (NUNC) were coated over night with 2 ug/ml streptavidin in PBS at room temperature, washed 4× and blocked for 1 h at 37° C. in 2% BSA containing blocking buffer. […] Peptide-MHC monomers of the UV-exchange reaction were diluted 100 fold in blocking buffer. Samples were incubated for 1 h at 37° C., washed four times, incubated with 2 ug/ml HRP conjugated anti-β2m for 1 h at 37° C., washed again and detected with TMB solution that is stopped with […]. Absorption was measured at 450 nm. Candidate peptides that show a high exchange yield (preferably higher than 50%, most preferred higher than 75%) are generally preferred for a generation and production of antibodies or fragments thereof, and/or T cell receptors or fragments thereof, as they show sufficient avidity to the MHC molecules and prevent dissociation of the MHC complexes.
substance,measurement,value
1 (PLWGKVFYL; listed as Homo sapiens) [compound 1],"MHC class I binding score, Peptide exchange",++ (20%-49% = ++)
3 (TLLGKQVTL; listed as Homo sapiens) [compound 3],"MHC class I binding score, Peptide exchange",+++ (50%-75% = +++)
4 (ELAEIVFKV; listed as Homo sapiens) [compound 4],"MHC class I binding score, Peptide exchange",+++ (50%-75% = +++)
5 (SLFGQEVYC; listed as Homo sapiens) [compound 5],"MHC class I binding score, Peptide exchange",+++ (50%-75% = +++)
6 (FLDPAQRDL; listed as Homo sapiens) [compound 6],"MHC class I binding score, Peptide exchange",+++ (50%-75% = +++)
8 (KLGPFLLNA; listed as Homo sapiens) [compound 8],"MHC class I binding score, Peptide exchange",+++ (50%-75% = +++)
10 (KTLDVFNIIL; listed as Homo sapiens) [compound 10],"MHC class I binding score, Peptide exchange",++ (20%-49% = ++)
11 (GVLKVFLENV; listed as Homo sapiens) [compound 11],"MHC class I binding score, Peptide exchange",++ (20%-49% = ++)
12 (GLIYEETRGV; listed as Homo sapiens) [compound 12],"MHC class I binding score, Peptide exchange",++ (20%-49% = ++)
13 (VLRDNIQGI; listed as Homo sapiens) [compound 13],"MHC class I binding score, Peptide exchange",+++ (50%-75% = +++)
14 (LLDHLSFINKI; listed as Homo sapiens) [compound 14],"MHC class I binding score, Peptide exchange",++ (20%-49% = ++)
16 (HLYNNEEQV; listed as Homo sapiens) [compound 16],"MHC class I binding score, Peptide exchange",++ (20%-49% = ++)
18 (YVLNEEDLQKV; listed as Homo sapiens) [compound 18],"MHC class I binding score, Peptide exchange",+++ (50%-75% = +++)
19 (TLLPTVLTL; listed as Homo sapiens) [compound 19],"MHC class I binding score, Peptide exchange",+++ (50%-75% = +++)
20 (ALDGHLYAI; listed as Homo sapiens) [compound 20],"MHC class I binding score, Peptide exchange",+++ (50%-75% = +++)
21 (SLYHRVLLY; listed as Homo sapiens) [compound 21],"MHC class I binding score, Peptide exchange",++++ (>=75% = ++++)
22 (MLSDLTLQL; listed as Homo sapiens) [compound 22],"MHC class I binding score, Peptide exchange",++++ (>=75% = ++++)
23 (AQTVVVIKA; listed as Homo sapiens) [compound 23],"MHC class I binding score, Peptide exchange",+ (<20% = +)
24 (FLWNGEDSAL; listed as Homo sapiens) [compound 24],"MHC class I binding score, Peptide exchange",+++ (50%-75% = +++)
25 (IQADDFRTL; listed as Homo sapiens) [compound 25],"MHC class I binding score, Peptide exchange",++ (20%-49% = ++)
26 (KVDGVVIQL; listed as Homo sapiens) [compound 26],"MHC class I binding score, Peptide exchange",+++ (50%-75% = +++)
27 (KVFGDLDQV; listed as Homo sapiens) [compound 27],"MHC class I binding score, Peptide exchange",+++ (50%-75% = +++)
28 (TLYSMDLMKV; listed as Homo sapiens) [compound 28],"MHC class I binding score, Peptide exchange",+++ (50%-75% = +++)
29 (TLCNKTFTA; listed as Homo sapiens) [compound 29],"MHC class I binding score, Peptide exchange",+++ (50%-75% = +++)
31 (ALSDETKNNWEV; listed as Homo sapiens) [compound 31],"MHC class I binding score, Peptide exchange",++++ (>=75% = ++++)
32 (ILADEAFFSV; listed as Homo sapiens) [compound 32],"MHC class I binding score, Peptide exchange",+++ (50%-75% = +++)
33 (LLLPLLPPLSPSLG; listed as Homo sapiens) [compound 33],"MHC class I binding score, Peptide exchange",+++ (50%-75% = +++)
35 (YVLPKLYVKL; listed as Homo sapiens) [compound 35],"MHC class I binding score, Peptide exchange",++ (20%-49% = ++)
36 (KLYGIEIEV; listed as Homo sapiens) [compound 36],"MHC class I binding score, Peptide exchange",++++ (>=75% = ++++)
37 (ALINDILGELVKL; listed as Homo sapiens) [compound 37],"MHC class I binding score, Peptide exchange",+++ (50%-75% = +++)
38 (KMQEDLVTL; listed as Homo sapiens) [compound 38],"MHC class I binding score, Peptide exchange",+++ (50%-75% = +++)
39 (ALMAVVSGL; listed as Homo sapiens) [compound 39],"MHC class I binding score, Peptide exchange",+++ (50%-75% = +++)
40 (SLLALPQDLQA; listed as Homo sapiens) [compound 40],"MHC class I binding score, Peptide exchange",+++ (50%-75% = +++)
41 (FVLPLVVTL; listed as Homo sapiens) [compound 41],"MHC class I binding score, Peptide exchange",+++ (50%-75% = +++)
42 (VLSPFILTL; listed as Homo sapiens) [compound 42],"MHC class I binding score, Peptide exchange",+++ (50%-75% = +++)
44 (GLLWQIIKV; listed as Homo sapiens) [compound 44],"MHC class I binding score, Peptide exchange",++ (20%-49% = ++)
45 (VLGPTPELV; listed as Homo sapiens) [compound 45],"MHC class I binding score, Peptide exchange",+++ (50%-75% = +++)
46 (SLAKHGIVAL; listed as Homo sapiens) [compound 46],"MHC class I binding score, Peptide exchange",+++ (50%-75% = +++)
47 (GLYQAQVNL; listed as Homo sapiens) [compound 47],"MHC class I binding score, Peptide exchange",+++ (50%-75% = +++)
48 (TLDHKPVTV; listed as Homo sapiens) [compound 48],"MHC class I binding score, Peptide exchange",++ (20%-49% = ++)
49 (LLDESKLTL; listed as Homo sapiens) [compound 49],"MHC class I binding score, Peptide exchange",+++ (50%-75% = +++)
50 (EYALLYHTL; listed as Homo sapiens) [compound 50],"MHC class I binding score, Peptide exchange",++ (20%-49% = ++)
51 (LLLDGDFTL; listed as Homo sapiens) [compound 51],"MHC class I binding score, Peptide exchange",+++ (50%-75% = +++)
52 (ELLSSIFFL; listed as Homo sapiens) [compound 52],"MHC class I binding score, Peptide exchange",+++ (50%-75% = +++)
53 (SLLSHVIVA; listed as Homo sapiens) [compound 53],"MHC class I binding score, Peptide exchange",+++ (50%-75% = +++)
54 (FINPKGNWLL; listed as Homo sapiens) [compound 54],"MHC class I binding score, Peptide exchange",+++ (50%-75% = +++)
55 (IASAIVNEL; listed as Homo sapiens) [compound 55],"MHC class I binding score, Peptide exchange",++ (20%-49% = ++)
56 (KILDLTRVL; listed as Homo sapiens) [compound 56],"MHC class I binding score, Peptide exchange",++ (20%-49% = ++)
57 (VLISSTVRL; listed as Homo sapiens) [compound 57],"MHC class I binding score, Peptide exchange",++ (20%-49% = ++)
58 (ALDDSLTSL; listed as Homo sapiens) [compound 58],"MHC class I binding score, Peptide exchange",++ (20%-49% = ++)

# Reference: patent US10159726B2, “Peptides, combination of peptides and scaffolds for use in immunotherapeutic treatment of various cancers” (Immatics Biotechnologies GmbH, priority 2015, dated 2018)
